The values below come from patent US20210163581A1 (ALAMAB THERAPEUTICS, published 2021).

For assay [1], the target named is T1, C1q (UniProt P02745 23-245; P02746 28-253; P02747 29-245).
T1 construct: also called Clq
As to the kind of experiment: ELISA, antibody coated at 3 µg/mL, C1q titrated. On the procedure:
(§1) Plates (Nunc) were coated with antibodies at 3 μg/mL overnight at 4° C. After blocking and washing, Clq was half-log titrated in blocking buffer (600, 189.75, 60.01, 18.98, 6.00, 1.90, 0.60, 0.19, 0.06 and 0.02 μg/mL) and incubated at room temperature for 2 h. The plates were then washed and subsequently incubated with secondary antibody Sheep anti-human Clq Ab-HRP for 1 h. After washing, TMB substrate was added and the interaction was stopped by 2M HCl.
In general terms: ELISA stands for enzyme-linked immunosorbent assay.

Assay [2] deals with T2, Cx43 (peptide used in the Biacore affinity assay of Example 1).
T2 construct: also called connexin 43; PEP1 (914)
Kind of assay: SPR Biacore T200, antibody and Cx43 peptide; format and peptide not given. Background: In SPR one partner is held on a chip, and binding of the other changes the refractive index at the surface.

In assay [3] the target is T3, CD64 (UniProt P12314 16-288).
T3 construct: also called FCRI
T3 sequence (P12314 16-288 limits assumed): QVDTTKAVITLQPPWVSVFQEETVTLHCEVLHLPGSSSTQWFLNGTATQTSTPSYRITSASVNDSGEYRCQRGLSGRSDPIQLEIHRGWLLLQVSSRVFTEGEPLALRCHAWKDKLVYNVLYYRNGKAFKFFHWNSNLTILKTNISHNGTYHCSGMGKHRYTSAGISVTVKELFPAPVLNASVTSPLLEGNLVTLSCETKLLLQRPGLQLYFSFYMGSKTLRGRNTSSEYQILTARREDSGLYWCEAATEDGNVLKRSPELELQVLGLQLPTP
As to the kind of experiment: SPR Biacore 8K, CD64 captured by anti-His antibody, antibody as analyte, 1:1 binding fit. As to the method:
2 μg/mL CD64 in running buffer (1×HBS-EP+) was injected to Fc2 of channel 1-4 at a flow rate of 10 μL/min for 30 s. 6 concentrations (40, 20, 10, 5, 2.5 and 1.25 nM) of analyte 20170905-Ab #C-02, 20170905-Ab #D-02, 20170908-Ab #G-02, 20170920-Ab #H-02 and running buffer were injected orderly to Fc1-Fc2 of channel 1-4 at a flow rate of 30 μL/min for an association phase of 180, followed by 400 dissociation. Repeat 6 cycles of capturing ligand and running analyte according to analyte concentrations in ascending order. 10 mM glycine pH 1.5 as regeneration buffer was injected following every dissociation phase.
(§2) Surface channels Fc1 without capturing ligand was used as control surface for reference subtraction. Final data of each interaction w as deducted from reference channel and buffer channel data. The experimental data of 20170905-Ab #C-02, 20170905-Ab #D-02, 20170908-Ab #G-02, 20170920-Ab #H-02 binding to CD64 was fitted by 1:1 binding mode. The 10240 nM curves of analyte 20170907-Ab #K-02, 20170908-Ab #L-02, 20170915-Ab #O-02, 20170919-Ab #P-02, 20170919-Ab #S-02 and 20170920-Ab #T-02 were removed to allow a better fit.

Another assay has as its target T4, human FcRn (human, UniProt P55899 24-297; P61769 21-119).
T4 construct: The b2m chain is my addition
As to the kind of experiment: SPR Biacore 8K, antibody amine-coupled to CM5, FcRn as analyte, pH 6.0, steady state affinity fit. As to the method: The activator was prepared by mixing 400 mM EDC and 100 mM NHS (GE) immediately prior to injection. The CM5 sensor chip was activated for 420 s with the mixture at a flow rate of 10 μL/min. 5 μg/mL of antibodies in 10 mM NaAc (pH 5.5) were then injected to Fc2 of channel 1-8 respectively at a flow rate of 10 μL/min for 60 s. The relative Fc1 was blocked. The chip w as deactivated by 1 M ethanolamine-HCl (GE) at a flow rate of 10 μL/min for 420 s.
Analyte FcRn was injected to channel 1-8 respectively. 8 concentrations of FcRn (0, 93.75, 187.5, 375, 750, 1500, 3000 and 6000 nM) were monitored at a flow rate of 30 μL/min for an association phase of 60 s, followed by 90 s dissociation. After each cycle of interaction analysis, the sensor chip surface was regenerated with 1×PBS (pH 7.4) at a flow rate of 10 μL/min for 30 s.
Surface channels Fc1 without immobilized antibodies were used as control surface for reference subtraction. Final data of each interaction was deducted from reference channel and buffer channel data.

The next assay addresses T5, FcγRIIa (UniProt P12318 36-218, limits assumed).
T5 construct: also called FCRIIa
T5 sequence (looked up): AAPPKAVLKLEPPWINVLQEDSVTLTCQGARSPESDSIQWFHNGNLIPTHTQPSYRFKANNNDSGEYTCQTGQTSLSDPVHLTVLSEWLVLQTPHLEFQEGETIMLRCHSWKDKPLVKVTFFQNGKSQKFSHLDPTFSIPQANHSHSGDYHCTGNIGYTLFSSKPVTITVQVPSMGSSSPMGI
As to the kind of experiment: SPR Biacore 8K, receptor captured by anti-His antibody, antibody as analyte, steady state affinity fit; unit inferred. As to the method: 1 μg/mL FcγRIIa, FcγRIIb, FcγRIIIa, or FcγRIIIb in running buffer (1×HBS-EP+) was injected to Fc2 of channel 1-8 at a flow rate of 10 μL/min for 15 s. Analytes were injected to channel 1-8 respectively. A series of analyte concentrations (seeing Table 3 below) were monitored at a flow rate of 30 μL/min for an association phase of 60 s, followed by 90 s dissociation. 10 mM glycine pH 1.5 as regeneration buffer was injected following every dissociation phase.
Surface channels Fc1 without capturing ligand was used as control surface for reference subtraction. Final data of each interaction was deducted from reference channel and buffer channel data. The experimental data of antibodies binding to FcγRIIa, FcγRIIb, FcγRIIIa, and FcγRIIIb was fitted by steady state affinity mode and shown in Table 4 below.

The target in assay [4] is T1, C1q. Kind of assay: ELISA, antibody coated at 3 µg/mL, C1q titrated, anti-human C1q-HRP detection. As to the method: as §1
Assay [5] concerns the target T3, CD64. Kind of assay: SPR Biacore 8K, CD64 captured by anti-His antibody, antibody as analyte, steady state affinity fit. As to the method:
(§3) 2 μg/mL CD64 in running buffer (1×HBS-EP+) was injected to Fc2 of channel 1-6 at a flow rate of 10 μL/min for 30 s. […] Repeat 8 cycles of capturing ligand and running analyte according to analyte concentrations in ascending order. 10 mM glycine pH 1.5 as regeneration buffer was injected following every dissociation phase.
as §2

For assay [6], the target named is T3, CD64. As to the kind of experiment: SPR Biacore 8K, CD64 captured by anti-His antibody, antibody as analyte, steady state affinity fit; steady state affinity fit; no ka/kd. As to the method: as §3, §2

T4 sequence (P55899 24-297 limits assumed, chain 1 of 2): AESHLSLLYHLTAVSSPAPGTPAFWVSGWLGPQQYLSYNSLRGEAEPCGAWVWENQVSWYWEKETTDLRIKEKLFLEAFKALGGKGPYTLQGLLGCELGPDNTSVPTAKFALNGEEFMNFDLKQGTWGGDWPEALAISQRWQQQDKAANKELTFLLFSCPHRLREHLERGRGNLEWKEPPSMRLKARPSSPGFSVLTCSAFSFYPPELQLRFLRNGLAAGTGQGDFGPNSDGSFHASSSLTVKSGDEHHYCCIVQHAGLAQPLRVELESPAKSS
T4 sequence (P61769 21-119 limits assumed, chain 2 of 2): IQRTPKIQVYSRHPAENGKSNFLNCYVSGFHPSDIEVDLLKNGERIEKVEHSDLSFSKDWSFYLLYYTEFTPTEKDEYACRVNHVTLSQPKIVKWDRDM
T1 sequence (P02745 23-245, chain 1 of 3): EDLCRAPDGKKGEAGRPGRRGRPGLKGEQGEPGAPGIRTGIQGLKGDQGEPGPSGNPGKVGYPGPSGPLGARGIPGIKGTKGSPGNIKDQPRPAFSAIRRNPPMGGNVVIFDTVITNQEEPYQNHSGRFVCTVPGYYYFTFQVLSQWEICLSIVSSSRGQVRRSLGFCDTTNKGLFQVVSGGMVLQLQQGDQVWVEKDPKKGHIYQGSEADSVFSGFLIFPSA
T1 sequence (P02746 28-253, chain 2 of 3): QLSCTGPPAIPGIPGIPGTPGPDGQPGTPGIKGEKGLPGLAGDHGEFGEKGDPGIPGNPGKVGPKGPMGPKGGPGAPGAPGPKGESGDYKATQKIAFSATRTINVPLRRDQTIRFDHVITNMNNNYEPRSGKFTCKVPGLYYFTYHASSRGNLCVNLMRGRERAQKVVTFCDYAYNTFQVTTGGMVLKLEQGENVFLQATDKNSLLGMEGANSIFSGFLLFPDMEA
T1 sequence (P02747 29-245, chain 3 of 3): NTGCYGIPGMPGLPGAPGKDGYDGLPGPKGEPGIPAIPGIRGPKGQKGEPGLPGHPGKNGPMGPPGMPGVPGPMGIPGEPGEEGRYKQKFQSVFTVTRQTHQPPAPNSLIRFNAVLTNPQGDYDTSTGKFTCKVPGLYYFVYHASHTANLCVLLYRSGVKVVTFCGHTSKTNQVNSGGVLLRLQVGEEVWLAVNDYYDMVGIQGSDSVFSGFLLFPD

B1: Ab#H (antibody, human IgG4 S228P, kappa)
heavy: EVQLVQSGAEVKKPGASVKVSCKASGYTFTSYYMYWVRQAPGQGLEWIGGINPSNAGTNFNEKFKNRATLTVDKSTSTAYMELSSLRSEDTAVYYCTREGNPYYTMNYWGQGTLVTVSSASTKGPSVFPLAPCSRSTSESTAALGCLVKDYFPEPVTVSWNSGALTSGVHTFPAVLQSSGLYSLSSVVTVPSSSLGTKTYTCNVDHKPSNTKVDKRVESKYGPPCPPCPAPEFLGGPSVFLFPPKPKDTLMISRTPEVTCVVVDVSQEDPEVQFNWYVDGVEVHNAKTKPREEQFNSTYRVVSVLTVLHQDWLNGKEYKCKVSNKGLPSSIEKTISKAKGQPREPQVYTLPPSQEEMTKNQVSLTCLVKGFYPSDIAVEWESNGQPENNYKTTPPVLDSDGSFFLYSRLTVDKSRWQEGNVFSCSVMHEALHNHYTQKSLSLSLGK
light: DVVMTQSPLSLPVTIGQPASISCKSSQSLLESDGKTYLNWLQQRPGQSPRRLIYLVSKLDSGVPDRFSGSGSGTDFTLKISRVEAEDVGVYYCWQGTHFPWTFGGGTKVEIKRTVAAPSVFIFPPSDEQLKSGTASVVCLLNNFYPREAKVQWKVDNALQSGNSQESVTEQDSKDSTYSLSSTLTLSKADYEKHKVYACEVTHQGLSSPVTKSFNRGEC
notes: also called 20170920-Ab #H-02; Mab H
By Kd is commonly meant the equilibrium constant for the complex coming apart. High values mean lower affinity, low ones higher affinity. For orientation: koff means a measure of how fast the partners let go of each other. A lower koff goes with a long-lived complex. The term kon denotes the rate constant with which the complex forms. On to B1, for which the binding result with C1q [1] is “no binding”. The molecule also registered a Kd in assay [2] of 46.5 nM. In the assay with CD64 [3], the affinity, expressed as Kd, was 5.73 nM; the koff came out at 0.00318 s⁻¹; the kon worked out at 554000 M⁻¹ s⁻¹. This molecule registered a Kd with human FcRn of 2610 nM.

B2: Ab#D (antibody, human IgG1, kappa)
heavy: not shown
light: DVVMTQSPLSLPVTIGQPASISCKSSQSLLESDGKTYLNWLQQRPGQSPRRLIYLVSKLDSGVPDRFSGSGSGTDFTLKISRVEAEDVGVYYCWQGTHFPWTFGGGTKVEIKRTVAAPSVFIFPPSDEQLKSGTASVVCLLNNFYPREAKVQWKVDNALQSGNSQESVTEQDSKDSTYSLSSTLTLSKADYEKHKVYACEVTHQGLSSPVTKSFNRGEC
notes: Light chain tie is indirect; also called 20170905-Ab #D-02
As to B2, the Kd in assay [2] stood at 198 nM; in the assay with FcγRIIa, 3390 nM; in the assay with CD64 [3], 1.92 nM; with human FcRn it was 2250 nM; with C1q [4], 75 nM. Besides, the koff in the assay with CD64 [3] worked out at 0.000925 s⁻¹. In the assay with CD64 [3], the kon is 482000 M⁻¹ s⁻¹.

B3: Ab#P (antibody, human IgG4 S228P, kappa)
heavy: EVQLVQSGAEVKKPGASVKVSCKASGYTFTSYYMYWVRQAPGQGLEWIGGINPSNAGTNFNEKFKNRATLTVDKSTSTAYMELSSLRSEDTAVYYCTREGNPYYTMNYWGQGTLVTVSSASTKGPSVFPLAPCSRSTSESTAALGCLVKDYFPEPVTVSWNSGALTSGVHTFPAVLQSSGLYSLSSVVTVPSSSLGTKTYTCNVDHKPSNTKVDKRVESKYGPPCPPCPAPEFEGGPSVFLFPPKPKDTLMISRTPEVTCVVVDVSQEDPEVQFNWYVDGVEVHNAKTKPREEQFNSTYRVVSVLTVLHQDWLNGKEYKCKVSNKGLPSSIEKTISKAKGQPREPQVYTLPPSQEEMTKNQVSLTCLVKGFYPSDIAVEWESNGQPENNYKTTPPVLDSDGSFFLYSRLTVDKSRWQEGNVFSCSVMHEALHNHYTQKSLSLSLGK
light: DVVMTQSPLSLPVTIGQPASISCKSSQSLLESDGKTYLNWLQQRPGQSPRRLIYLVSKLDSGVPDRFSGSGSGTDFTLKISRVEAEDVGVYYCWQGTHFPWTFGGGTKVEIKRTVAAPSVFIFPPSDEQLKSGTASVVCLLNNFYPREAKVQWKVDNALQSGNSQESVTEQDSKDSTYSLSSTLTLSKADYEKHKVYACEVTHQGLSSPVTKSFNRGEC
As for B3, the binding result with C1q [1] is reported as “no binding”. Further, the Kd in assay [2] is 8.58 nM; with human FcRn it was 2550 nM; with CD64 [5] it was 2790 nM.

B4: Ab#T (antibody, human IgG4 S228P, kappa, F234A L235A)
heavy: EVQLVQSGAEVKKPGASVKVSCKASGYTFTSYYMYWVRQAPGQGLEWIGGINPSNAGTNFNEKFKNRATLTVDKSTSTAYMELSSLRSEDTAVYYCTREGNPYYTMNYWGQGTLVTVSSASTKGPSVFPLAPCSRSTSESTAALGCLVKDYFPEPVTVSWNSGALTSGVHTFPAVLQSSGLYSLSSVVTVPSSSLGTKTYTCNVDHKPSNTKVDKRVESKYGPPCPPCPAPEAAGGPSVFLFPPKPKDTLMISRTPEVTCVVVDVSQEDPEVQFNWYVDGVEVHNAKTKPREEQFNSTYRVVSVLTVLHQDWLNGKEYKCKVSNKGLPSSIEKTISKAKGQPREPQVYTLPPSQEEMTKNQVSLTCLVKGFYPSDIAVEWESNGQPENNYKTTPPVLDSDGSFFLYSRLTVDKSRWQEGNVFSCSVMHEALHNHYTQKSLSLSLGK
light: DVVMTQSPLSLPVTIGQPASISCKSSQSLLESDGKTYLNWLQQRPGQSPRRLIYLVSKLDSGVPDRFSGSGSGTDFTLKISRVEAEDVGVYYCWQGTHFPWTFGGGTKVEIKRTVAAPSVFIFPPSDEQLKSGTASVVCLLNNFYPREAKVQWKVDNALQSGNSQESVTEQDSKDSTYSLSSTLTLSKADYEKHKVYACEVTHQGLSSPVTKSFNRGEC
notes: also called 20170920-Ab #T-02
In the case of B4, in the assay with C1q [1], the binding result is “no binding”. For the same molecule, the Kd in assay [2] is 0.582 nM; with human FcRn it was 2560 nM; in the assay with CD64 [5], 3050 nM.

B5: Ab#L (antibody, human IgG1, kappa, L234A L235A)
heavy: not shown
light: DVVMTQSPLSLPVTIGQPASISCKSSQSLLESDGKTYLNWLQQRPGQSPRRLIYLVSKLDSGVPDRFSGSGSGTDFTLKISRVEAEDVGVYYCWQGTHFPWTFGGGTKVEIKRTVAAPSVFIFPPSDEQLKSGTASVVCLLNNFYPREAKVQWKVDNALQSGNSQESVTEQDSKDSTYSLSSTLTLSKADYEKHKVYACEVTHQGLSSPVTKSFNRGEC
notes: also called 20170908-Ab #L-02
Take B5: the values for the Kd (in assay [2]; in the assay with CD64 [6]; with human FcRn) were 10.1 nM, 1620 nM and 2600 nM, respectively.
